Assay results published in patent US5852187A, “Molecular cloning of the ovine pituitary growth hormone releasing hormone receptor” (priority 1996, dated 1998).
pKd, pKi: −log10 of the molar value. Where “and” joins values, the source holds several entries; their conditions need not be identical. Equal entries are not always repeated. Entries after “also recorded” stand apart in the source; their conditions may differ. Where two headings read alike, the source gives them in different places. Where no end group is shown, it is not given here. [ ]: non-standard residue; d: D form. The star is where a group is joined. Nle = CCCC[C@H](N)C(=O)O; 125I = [125I]*

Columns and labels:
GHRH receptor (GHRH-R) = assay: 125I-GHRHa binding assay in crude anterior pituitary membrane pellets; set-up: species or system ovine; details: for competition for the 125I-GHRHa binding site: 100 nM competing peptide; for displacement of GHRH in ovine pituitary: at 500 nM
Protocol: Specific binding is defined as the difference in the binding seen with 20 pM iodinated analog alone and binding of the analog in the presence of 10 nM non-iodinated GHRHa.
All steps were performed at 4° C. Frozen ovine or bovine anterior pituitaries (ovine: approximately 1 gm/pituitary obtained from Dr. Ian Clarke, Melbourne, Australia; bovine: approximately 2.5 gm/pituitary special handling from Pel-Freez, of Rogers, Ark.) were washed of blood, cleaned of connective tissue and homogenized (using a Dounce homogenizer) in 50 mM HEPES buffer, 100 mM NaCl, 10 mM EDTA, 0.1 μM EGTA, pH 7.4 with 0.5 mM PMSF (phenyl methyl sulfonyl fluoride), 10 μg/ml leupeptin, 10 μg/ml pepstatin A, and 200 U/ml (units/ml) aprotinin. This buffer is used to remove endogenous GTP which might be bound to G proteins and to restore high affinity binding. The homogenate was spun at top speed in a microfuge and the supernatant discarded. The upper (membrane) layer of the pellet was then gently resuspended in binding buffer containing 50 mM Tris buffer, 5 mM EGTA, 5 mM MgCl2, 50 μg/ml alamethicin, 30 μg/ml bacitracin and other protease inhibitors as above.
1/50 pituitary equivalent per tube was incubated in binding buffer with approximately 100,000 counts of iodinated probe in a volume of 500 μl at room temperature for 1 hour. The total counts delivered and the percent of counts bound for each tube was determined with 3 to 6 replicates per experimental condition. Saturation binding profiles were analyzed with the computer program Ligand which performs a statistically weighted least squares fit to the exact ligand binding equation in nontransformed coordinates.

GHRH-R (55 kDa band) = assay: Photoaffinity cross-linking / photoprobe binding in pituitary membrane pellets (gamma counting, SDS-PAGE autoradiography); set-up: species or system ovine
Protocol: Photoprobe binding in ovine pituitary membrane pellets was determined by γ-counting and UV induced cross-linking was examined by autoradiography of sodium dodecylsulfate polyacrylamide electrophoresis (SDS-PAGE) gels. ^125 I-GHRHa -ANB-NOS probe bound with an affinity of about one nanomole, nM (compared to about 160 picomole, pM, for GHRHa).
Photoprobe binding to membranes was evaluated with crude membrane binding assay and then analyzed further by SDS-PAGE electrophoresis to identify the binding sites. Photoprobes were incubated in the dark, photolysed for 10 minutes with a long wave (366 nm) UV lamp, and then the samples were pelleted. The pellets were counted and then extracted by boiling directly in SDS sample buffer (total SDS extracts). Alternatively, the labeled pellets were extracted in a mild detergent solution (5 mM CHAPS) centrifuged, and the chloroform/methanol concentrated supernatants denatured with SDS buffer (CHAPS extracts). These samples were then electrophoresed in SDS gels and autoradiographed.

[1] = biological target: T1, GHRH-R encoded by HAP 7 cDNA (Homo sapiens, UniProt Q02643); assay: Iodinated GHRH binding to COS cell membranes transfected with pCDM8 containing HAP 7 cDNA; details: for effect on binding of iodinated GHRH: 100 nM peptide, HAP transfected COS cells or membranes
T1 construct: expressed in transfected cells; host or cells: Cos-1 cells (membranes), pCDM8 vector
T1 sequence (Q02643 23-423): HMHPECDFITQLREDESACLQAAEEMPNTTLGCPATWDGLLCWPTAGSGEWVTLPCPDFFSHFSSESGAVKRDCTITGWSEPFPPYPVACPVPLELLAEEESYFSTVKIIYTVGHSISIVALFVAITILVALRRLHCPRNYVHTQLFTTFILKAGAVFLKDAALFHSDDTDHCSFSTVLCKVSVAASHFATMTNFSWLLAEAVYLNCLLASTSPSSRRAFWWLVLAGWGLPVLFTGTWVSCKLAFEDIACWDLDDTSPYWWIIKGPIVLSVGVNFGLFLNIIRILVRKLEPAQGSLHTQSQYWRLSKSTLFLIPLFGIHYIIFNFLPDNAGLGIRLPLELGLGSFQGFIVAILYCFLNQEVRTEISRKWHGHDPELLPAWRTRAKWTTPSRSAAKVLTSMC
Protocol: Cos-1 cells were transfected with the vector formed by splicing pCDM8 and HAP cDNA, and Cos-1 cell membranes were prepared 72 hours subsequently. Cos-1 cells were transfected using 10 μg of plasmid DNA per 6×10^5 cells in a 100-mm dish using the DEAE-dextran method described by Cullen. […] COS cell cultures were transfected in parallel with pCDM8 containing a cDNA encoding the rat AT1 angiotensin II receptor.

[2] = biological target: T2, secretin and VIP receptors (Homo sapiens, UniProt P47872); details: at 10 μM; cited from earlier work
T2 construct: host or cells: human pancreas tissue
T2 sequence (P47872 23-440): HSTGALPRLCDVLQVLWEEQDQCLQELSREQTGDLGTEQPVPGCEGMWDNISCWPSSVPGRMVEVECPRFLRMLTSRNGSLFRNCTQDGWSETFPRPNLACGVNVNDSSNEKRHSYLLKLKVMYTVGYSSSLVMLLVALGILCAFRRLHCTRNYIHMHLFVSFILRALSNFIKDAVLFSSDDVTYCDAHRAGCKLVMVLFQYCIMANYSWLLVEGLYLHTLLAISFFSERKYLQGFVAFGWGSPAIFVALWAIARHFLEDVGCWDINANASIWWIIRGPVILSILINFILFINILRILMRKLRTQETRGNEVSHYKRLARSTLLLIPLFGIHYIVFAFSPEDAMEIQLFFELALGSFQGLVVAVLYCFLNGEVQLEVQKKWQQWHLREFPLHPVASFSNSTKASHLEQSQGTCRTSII

[3] = biological target: human GHRH receptor encoded by HAP 7.3 cDNA (human); assay: competition with iodinated GHRH analog, membranes of COS cells transfected with HAP 7 (FIG. 16)
[4] = biological target: ovine pituitary growth hormone releasing hormone receptor (ovine); assay: displacement of GHRH and its analogs, ovine anterior pituitary tissue
[5] = biological target: bovine pituitary GHRH receptor (bovine) (UniProt Q9TUJ0); assay: displacement of GHRH and its analogs, bovine anterior pituitary tissue
[6] = biological target: ovine pituitary growth hormone releasing hormone receptor (ovine); assay: saturation binding analysed with the program Ligand, crude pituitary membrane pellets
[7] = biological target: ovine pituitary growth hormone releasing hormone receptor (ovine); assay: binding and displacement of iodinated GHRH analog, ovine pituitary membranes (FIG. 17)
[8] = biological target: ovine pituitary growth hormone releasing hormone receptor (ovine); assay: saturation binding with increasing unlabeled GHRHa, crude pituitary membrane pellets (FIG. 2)
[9] = biological target: ovine pituitary growth hormone releasing hormone receptor (ovine); assay: saturation binding analysed with the program Ligand, crude pituitary membrane pellets (FIG. 2)
[10] = biological target: pituitary GHRH receptor (ovine or bovine, not said which at the place); assay: charcoal-dextran binding assay on pituitary membrane preparations solubilized in CHAPS without prebound ligand; the ligand is not named
[11] = biological target: dibiotinylated GHRHa (human) (UniProt P01286); assay: binding of iodinated biotinylated GHRHa forms to immobilized streptavidin, through the biotin group
[12] = biological target: monobiotinylated GHRHa (human) (UniProt P01286); assay: as above

O[C@H](CS)[C@H](O)CS (racemic) [dithiothreitol]
effect on specific binding in the GHRH assay (GHRH receptor (GHRH-R); preincubation with 1 mM): completely eliminated

Nc1nc2c(ncn2[C@@H]2O[C@H](COP(=O)(O)OP(=O)(O)OP(O)(O)=S)[C@@H](O)[C@H]2O)c(=O)[nH]1 [GTPγS]
displacement of both photoprobes from membrane pellets (GHRH-R (55 kDa band); 50 μM GTPγS): partially displaced

CC[C@H](C)[C@H](NC(=O)CNC(=O)[C@H](CC(=O)O)NC(=O)[C@H](CO)NC(=O)[C@@H](N)Cc1c[nH]cn1)C(=O)N[C@@H](Cc1ccccc1)C(=O)N[C@H](C(=O)N[C@@H](CC(=O)O)C(=O)N[C@@H](CO)C(=O)N[C@@H](Cc1ccc(O)cc1)C(=O)N[C@@H](CO)C(=O)N[C@@H](CCCNC(=N)N)C(=O)N[C@@H](Cc1ccc(O)cc1)C(=O)N[C@@H](CCCNC(=N)N)C(=O)N[C@@H](CCCCN)C(=O)N[C@@H](CCC(N)=O)C(=O)N[C@@H](CCSC)C(=O)N[C@@H](C)C(=O)N[C@H](C(=O)N[C@@H](CCCCN)C(=O)N[C@@H](CCCCN)C(=O)N[C@@H](Cc1ccc(O)cc1)C(=O)N[C@@H](CC(C)C)C(=O)N[C@@H](C)C(=O)N[C@@H](C)C(=O)N[C@H](C(=O)N[C@@H](CC(C)C)C(=O)NCC(=O)N[C@@H](CCCCN)C(=O)N[C@@H](CCCNC(=N)N)C(=O)N[C@@H](Cc1ccc(O)cc1)C(=O)N[C@@H](CCCCN)C(=O)N[C@@H](CCC(N)=O)C(=O)N[C@@H](CCCNC(=N)N)C(=O)N[C@H](C(=O)N[C@@H](CCCCN)C(=O)N[C@@H](CC(N)=O)C(=O)N[C@@H](CCCCN)C(N)=O)C(C)C)C(C)C)C(C)C)[C@@H](C)O [PACAP, pituitary adenylate cyclase activating peptide]
competition for the 125I-GHRHa binding site (GHRH receptor (GHRH-R)): no competition; also recorded: did not compete | displacement of GHRH in ovine pituitary (GHRH receptor (GHRH-R)): significant displacement

C[C@H](N)C(=O)NCC(=O)N[C@H]1CSSC[C@@H](C(=O)O)NC(=O)[C@H](CO)NC(=O)[C@H]([C@@H](C)O)NC(=O)[C@H](Cc2ccccc2)NC(=O)[C@H]([C@@H](C)O)NC(=O)[C@H](CCCCN)NC(=O)[C@H](Cc2c[nH]c3ccccc23)NC(=O)[C@H](Cc2ccccc2)NC(=O)[C@H](Cc2ccccc2)NC(=O)[C@H](CC(N)=O)NC(=O)[C@H](CCCCN)NC1=O [somatostatin]
effect on binding of iodinated GHRH [1]: unaffected

GHRH(1-29)-NH2
inhibition of 125I-secretin binding [2]: 20%

GHRH: growth hormone releasing hormone; the competitor in FIG. 17 is GHRHa
pKd (GHRH receptor (GHRH-R); ovine pituitary membranes, displacement data of FIG. 17, read-out: KD for GHRH binding in pituitary): 9.70

His^1, ^125 I-Tyr^10,Nle^27 human GHRH(1-29)NH2
binding of radioligand to HAP cDNA transfected COS cell membranes ([1]; not seen in angiotensin receptor cDNA transfected COS cells): specific, high-affinity binding

PACAP (pituitary adenylate cyclase activating peptide)
pKi [3]: 7.52

PHM: competing peptide of the VIP family (HADGVFTSDFSKLLGQLSAKKYLESLM; ends and bridges not checked; UniProt P01282 81-107, looked up)
effect on binding of iodinated GHRH [1]: unaffected

[His1, Nle27]-GHRH-(1-32)-NH2 (from UniProt P01286) (peptide)
fold lower displacing concentration than VIP or PACAP [4]: 500 fold and 1000 fold | fold lower displacing concentration than VIP or PACAP [5]: 500 fold and 1000 fold | pKd [6]: 9.80 | pKd [7]: 9.70 | pKd [8]: 9.80 | pKd [9]: 9.82 | pKd [10]: 6.30

[His 1, Nle27, Biotin-Lys4 1 ]-GHRH-(1-41)-NH2 [GHRHb]
receptor binding affinity compared to GHRHa (GHRH receptor (GHRH-R)): comparable to GHRHa

[His^1, Nle^27 ]-GHRH-(1-32)-NH2 [GHRHa]
pKd (GHRH receptor (GHRH-R); crude ovine pituitary membranes, program Ligand, read-out: Kd, saturation binding to a single high affinity site): 9.80 and ~9.80 | displacement of both photoprobes from membrane pellets (GHRH-R (55 kDa band); 10 nM GHRHa): totally displaced | effect on photo-cross-linked 55 kDa band (GHRH-R (55 kDa band); 10 nM GHRHa, 125I-GHRHa-ANB-NOS probe): completely eliminated

^125 I-GHRHa -ANB-NOS: GHRHa coupled to N-5-azido-2-nitrobenzoyloxysuccinimide at lysine 12 or 21, then iodinated; photoprobe (YADAIFTNSY(125I)RKVLGQLSARKLLQDI[Nle]SRQQG-NH2; also: N-5-azido-2-nitrobenzoyl (ANB-NOS) on lysine 12 or 21)
affinity of photoprobe binding (GHRH-R (55 kDa band); ovine pituitary membrane pellets, gamma-counting): about one

^125 I-GHRHa: radioiodinated GHRHa probe, monoiodinated and HPLC purified (YADAIFTNSY(125I)RKVLGQLSARKLLQDI[Nle]SRQQG-NH2)
comparison with commercially available iodinated human GHRH (GHRH receptor (GHRH-R)): slightly better specific binding

calcitonin
effect on binding of iodinated GHRH [1]: unaffected

immobilized streptavidin (from UniProt P22629) (tool reagent)
percent of product bound [11]: > 90% | percent of product bound [12]: > 90%

monobiotinylated GHRHa: GHRHa biotinylated at lysine 12 or 21 with NHS-LC-Biotin, mono form resolved on HPLC (YADAIFTNSY(iodo)RKVLGQLSARKLLQDI[Nle]SRQQG-NH2; also: NHS-LC-Biotin on one of lysines 12 and 21)
receptor binding affinity compared to GHRHa (GHRH receptor (GHRH-R)): two-fold reduced

parathyroid hormone
effect on binding of iodinated GHRH [1]: unaffected

secretin
effect on binding of iodinated GHRH [1]: unaffected

vasoactive intestinal peptide [VIP]
competition for the 125I-GHRHa binding site (GHRH receptor (GHRH-R)): no competition; also recorded: did not compete | displacement of GHRH in ovine pituitary (GHRH receptor (GHRH-R)): not | effect on photo-cross-linked 55 kDa band (GHRH-R (55 kDa band); 100 nM VIP): unaffected | effect on binding of iodinated GHRH [1]: unaffected; also recorded: no effect | inhibition of 125I-secretin binding [2]: 20%
